No end group written: not given here.
T1: SspB (Escherichia coli, UniProt P0AFZ3 1-165)
T1 chain: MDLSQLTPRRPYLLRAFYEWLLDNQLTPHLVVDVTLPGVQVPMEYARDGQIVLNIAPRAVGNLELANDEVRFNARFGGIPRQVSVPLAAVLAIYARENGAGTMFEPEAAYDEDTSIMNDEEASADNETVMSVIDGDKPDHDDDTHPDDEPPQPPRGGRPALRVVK

B1: SspB (natural protein, Escherichia coli, UniProt P0AFZ3 1-165, looked up)
chain: MDLSQLTPRRPYLLRAFYEWLLDNQLTPHLVVDVTLPGVQVPMEYARDGQIVLNIAPRAVGNLELANDEVRFNARFGGIPRQVSVPLAAVLAIYARENGAGTMFEPEAAYDEDTSIMNDEEASADNETVMSVIDGDKPDHDDDTHPDDEPPQPPRGGRPALRVVK

Columns and labels:
SspB [1] = molecular target: B1; test: MST; 50 nM eGFP-degron (eGFP fluorescence), SspB titrated 3.72 nM to 122 μM; 25 mM Hepes pH 7.6, 200 mM KCl, 5 mM MgCl2, 10% glycerol, 0.05% Tween 20; 15 min at RT; measured at 20 °C, Monolith NT.115; conditions: both partners purified
SspB [2] = molecular target: T1, SspB; test: MST
SspB [3] = molecular target: T1, SspB; test: MST
ClpX = ClpX (Escherichia coli, UniProt P0A6H1 1-424); test: cell-based or functional assay
ClpX, sequence (P0A6H1 whole entry): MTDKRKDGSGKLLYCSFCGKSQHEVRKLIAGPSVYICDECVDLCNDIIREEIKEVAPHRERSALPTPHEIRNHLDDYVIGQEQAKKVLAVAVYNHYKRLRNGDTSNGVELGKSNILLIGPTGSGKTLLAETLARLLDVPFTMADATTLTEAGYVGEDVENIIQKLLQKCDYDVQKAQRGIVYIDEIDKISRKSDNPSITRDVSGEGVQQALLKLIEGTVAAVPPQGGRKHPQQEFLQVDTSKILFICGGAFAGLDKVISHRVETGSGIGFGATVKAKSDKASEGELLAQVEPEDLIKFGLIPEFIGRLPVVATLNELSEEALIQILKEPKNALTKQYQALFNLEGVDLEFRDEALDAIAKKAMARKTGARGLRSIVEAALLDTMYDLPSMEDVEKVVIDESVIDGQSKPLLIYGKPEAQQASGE

Binder | Kd (SspB [1]) | Ka (SspB [2]) | binding result (SspB [1]) | Kd (SspB [3]) | ClpX ATPase activity (NADH-coupled assay, 0.08 µM ClpX6, 30 °C) with increasing SspB2 (0-27.4 μM): increase of reaction velocity (ClpX)
eGFP-AANDENYSENY (AANDENY motif of the ssrA tag followed by the SENY linker, appended to the C-terminus of eGFP; Degron fused to the C-terminus of His-TEV-eGFP; source: E. coli ΔclpP Keio strain (JW0427) (earlier Top10), pBAD, purified (HisTrap and Superdex200 in tandem); not shown: His-TEV, N-terminal, kept; eGFP, N-terminal, kept) [eGFP-AANDENYSENY] | 100 nM | 9.78e+06 M⁻¹ | – | – | –
eGFP-AANDENYSENYALAA (ssrA tag variant with the SENY linker between AANDENY and ALAA, appended to the C-terminus of eGFP; Degron fused to the C-terminus of His-TEV-eGFP; source: E. coli ΔclpP Keio strain (JW0427) (earlier Top10), pBAD, purified (HisTrap and Superdex200 in tandem); not shown: His-TEV, N-terminal, kept; eGFP, N-terminal, kept) [eGFP-AANDENYSENYALAA] | – | 7.8e+06 M⁻¹ | binds | 140 nM | –
eGFP-AANDENYSENYADAS (ssrA tag variant with the SENY linker and the C-terminal ALAA replaced by ADAS, appended to the C-terminus of eGFP; Degron fused to the C-terminus of His-TEV-eGFP; source: E. coli ΔclpP Keio strain (JW0427) (earlier Top10), pBAD, purified (HisTrap and Superdex200 in tandem); not shown: His-TEV, N-terminal, kept; eGFP, N-terminal, kept) [eGFP-AANDENYSENYADAS] | 300 nM | 3.37e+06 M⁻¹ | – | – | –
eGFP-AANDENYAANDENY (two repeats of the AANDENY motif of the ssrA tag, appended to the C-terminus of eGFP; Degron fused to the C-terminus of His-TEV-eGFP; source: E. coli ΔclpP Keio strain (JW0427) (earlier Top10), pBAD, purified (HisTrap and Superdex200 in tandem); not shown: His-TEV, N-terminal, kept; eGFP, N-terminal, kept) [eGFP-AANDENYAANDENY] | – | 9.56e+06 M⁻¹ | binds | 120 nM | –
eGFP-AANDENY (AANDENY motif of the E. coli ssrA tag, appended to the C-terminus of eGFP; Degron fused to the C-terminus of His-TEV-eGFP; source: E. coli ΔclpP Keio strain (JW0427) (earlier Top10), pBAD, purified (HisTrap and Superdex200 in tandem); not shown: His-TEV, N-terminal, kept; eGFP, N-terminal, kept) [eGFP-AANDENY] | – | 1.08e+07 M⁻¹ | binds | 110 nM | –
B1 | – | – | – | – | ~2 fold
eGFP-AANDENYADAS (ssrA tag variant with the C-terminal ALAA replaced by ADAS, appended to the C-terminus of eGFP; Degron fused to the C-terminus of His-TEV-eGFP; source: E. coli ΔclpP Keio strain (JW0427) (earlier Top10), pBAD, purified (HisTrap and Superdex200 in tandem); not shown: His-TEV, N-terminal, kept; eGFP, N-terminal, kept) [eGFP-AANDENYADAS] | 330 nM | 3.02e+06 M⁻¹ | – | – | –
eGFP-AANDENYALAA (ssrA tag of Escherichia coli, the 11 amino acids added by trans-translation (tmRNA), appended to the C-terminus of eGFP; Degron fused to the C-terminus of His-TEV-eGFP; also called eGFP-ssrA; eGFP-SsrA; source: E. coli ΔclpP Keio strain (JW0427) (earlier Top10), pBAD, purified (HisTrap and Superdex200 in tandem); not shown: His-TEV, N-terminal, kept; eGFP, N-terminal, kept) [eGFP-AANDENYALAA] | 80 nM | 1.32e+07 M⁻¹ | – | – | –

Reference: publication PMC8512704, “A Uniform Benchmark for Testing SsrA-Derived Degrons in the Escherichia coli ClpXP Degradation Pathway” (Molecules, 2021)
